Experimental data reported in patent publication US20070128192A1.

Key:
[1] = target: human IL-13 (human) (UniProt P35225); experiment: cell-based or functional assay
[2] = target: native (naturally occurring) human IL-13 released from HDLM-2 cells (human) (UniProt P35225); experiment: cell-based or functional assay
Chain of native (naturally occurring) human IL-13 released from HDLM-2 cells (human) (P35225 other isoform, or with tags, fused parts or gaps): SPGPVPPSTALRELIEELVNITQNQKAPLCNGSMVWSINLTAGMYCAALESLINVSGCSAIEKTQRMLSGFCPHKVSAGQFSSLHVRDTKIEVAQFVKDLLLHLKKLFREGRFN

Chain of human IL-13 (human) (P35225 other isoform, or with tags, fused parts or gaps): as above

Row | IC50, TF-1 proliferation assay [1] [nM] | IC50, eotaxin release from NHLF [1] [nM] | IC50, HDLM-2 cell proliferation assay [2] [nM] | Substance
1 | 1.02 | 0.219 | 16.7 | B-B13 (antibody)
2 | 0.471 | 0.623 | 10.7 | JES10-5A2 (antibody)
